Experiment: label from the status in PepcDB records

| Sequence | protein production |
| --- | --- |
| MSLTVKDILDAIQSPDSTPADIAALPLPESYRAITVHKDETEMFAGLETRDKDPRKSIHLDDVPVPELGPGEALVAVMASSVNYNSVWTSIFEPLSTFGFLERYGRVSDLAKRHDLPYHVIGSDLAGVVLRTGPGVNAWQAGDEVVAHCLSVELESSDGHNDTMLDPEQRIWGFETNFGGLAEIALVKSNQLMPKPDHLSWEEAAAPGLVNSTAYRQLVSRNGAGMKQGDNVLIWGASGGLGSYATQFALAGGANPICVVSSPQKAEICRAMGAEAIIDRNAEGYRFWKDENTQDPKEWKRFGKRIRELTGGEDIDIVFEHPGRETFGASVFVTRKGGTITTCASTSGYMHEYDNRYLWMSLKRIIGSHFANYREAWEANRLIAKGRIHPTLSKVYSLEDTGQAAYDVHRNLHQGKVGVLCLAPEEGLGVRDREKRAQHLDAINRFRNEGHHHHHH | not failed |
| MSLVSVIILASGNSQRMGQNKLFLKYQGKTFLEHTLTLVNQLDVLERILVVSPENQPAFPLPKNIQLILNHQWQEGQSSSIRLGTEQARGAGYLYLPSDQPLLTPKMLQLVLDKCQRNKIVVPLQKDGCPSSPVLFGNQFRQELLTLTGEKGGRMIYERFPEAVQMLRIATPGRLKDIDTPEEYQKLIQETNSLEHHHHHH | failed |
| MSLVVCQPQINESFYQKDDMGGLSFLQSMSDITSIAQTKEDKAYVHPMEKRSVSKLNEKSLEMCTESLGTETGSESGDELSLLAFEATTTPRAPPRQLKPQEDTNLPDKTPPMSRNNSFPPPIKFVEDSKYNRMVRWLGEDGRIVVQAIRVSSPPSCFVSERGEGRLRLILTSESSLLSHNHEEEEEEETEEGIDEETSENLEGKSGNKKFSRFSRRCKENGREPKPMLTWKQQQFWVAT | failed |
| MSLYKLYSMQRSGNSYKVRLALALLDAPYRAVEVDILRGESRTPDFLAKNPSGQVPLLETAPGRYLAESNAILWYLAVGTSLAPDTRMDRAEALQWMFFEQHALEPNIGSAYFWLCLVKGGRDLQTHALEDWLERGYAALQVMENHLKTNDYFAAGQLTIADIALYGYTHVADQCDFDLSTFPAVNAWLRRVEQTPGFITMDWTPETIAADPTSFAAEGHHHHHH | not failed |
| MSLYNYVLFDLDGTLTDSAEGITKSVKYSLNKFDIQVEDLSSLNKFVGPPLKTSFMEYYNFDEETATVAIDYYRDYFKAKGMFENKVYDGIEALLSSLKDYGFHLVVATSKPTVFSKQILEHFKLAFYFDAIVGSSLDGKLSTKEDVIRYAMESLNIKSDDAIMIGDREYDVIGALKNNLPSIGVTYGFGSYEELKNAGANYIVNSVDELHKKILELREGHHHHHH | not failed |
| MSMLANFDFASFFAVAAAIVIGLYVVLDGFDLGVGILFPFAPRVSDRDAMMATLEPFWDGNETWLVLGGMVLLGAFPLAFAILLPAFYVPLCLMLFGLVIRGVAFEFRSQGGRFQIVWSATFAAGSFIAAFCQGAVLGAFVGRSITVSDGAFAGGPFDWLGLFSIATGLGVVAAYGLLGACWLVWKTSGSTQNFGRELMLPTLLCAGAAIVLISVWTPFAKPQIAERWFAWPDALLLAPLPIIAVLAGIGILLTRWSEREWAPLALSLLLFVTSLAGLGASVWPEAIPGVMTIWQASSMHRTQVIVAGAVVIIGPIILAYIGYGYWLFRGKTKPVPEFPPR | failed |
| MSMLKRTLVLLGDTPSSLAARAYAFRLVQQTGTDLTGLAGVDLGEIEAPMLGGIGMSAYQTQLQTELKRQADATRERLQAAFSDECRSRSIACAALSFEGDAADGFRLATETRDLAIAGHDTGFGGSQEPLSAMIAKLVVRTPRPLIVCPDELPAGDAVLIAYDGSLPAMRALQVFALLGLGDGKQICVLAIDRDEAAAVRKANAAAEFLKIHGHAAQAVPSSSGDDPADLIRSAVAERNIGTVVMGAYGNRGFREALFGSTTDALVDTPPCALFLYH | failed |
| MSMSAQGKKAAESTTSTRPAKLDKQAYEAELKRLQAELVDMQQWVVETGARVVIIMEGRDAAGKGSAIKRMTQYLNPRTCRIEALPAPNSREQGQWYFQRYVEKLPTAGEIVIFDRSWYNRAGVERVMGFCTSQEYRRFLHQAPIFERLLVEDGIMLRKYWFSVSDEEQIARFKSRRNDPLRRWKLSPMDLQSITRWEDYSRAKDEMFVHTDIPSAPWYTVESEDKKRSRINVISHLLSTIPYEKIDRP | failed |
| MSNAFEYLRTYVESTTETDAAVARAREDAAEFGLPAPDEMTGQLLTTLAATTNGNGSTGAIAITPAAGLVGLYILNGLADNTTLTCIDPESEHQRQAKALFREAGYSPSRVRFLLSRPLDVMSRLANDSYQLVFGQVSPMDLKALVDAAWPLLRRGGALVLADALLDGTIADQTRKDRDTQAARDADEYIRSIEGAHVARLPLGAGLTVVTKALEHHHHHH | not failed |
| MSNDLINGSILHCLETASLGMPLEVWKTRMCVYRNENTIKSFKNIYNKGLGQFYAGFYAKLIESGSKGAVLLLSKEQIIKVCNDMNINKTTSGFIGGACGGICQSLVMTPCTFFITASIDKKINYKEKLIHIFKNTGITTLYKGNTAMCLRQGTNWASRQGITEWIRNIVMERKKNRKNKNDDINNVKGMIFSGNDITTDKIKHNNNNNNNNNTSQSKSLELTTSEELFCGIVGGALSVWNNPFDVVRVYMQNNANKNIKLTFFQSFIHLYKEGGILYLYKGVIPRCFLCIWQTLFMVTGIKILNKYF | failed |
| MSNDVDLIKRLGPSAMDQIMLYLAFSAMRTSGHRHGAFLDAAATAAKCAIYMTYLEQGQNLRMTGHLHHLEPKRVKAIVEEVRQALTEGKLLKMLGSQEPRYLIQFPYVWMEKYPWRPGRSRIPGTSLTSEEKRQIEQKLPSNLPDAHLITSFEFLELIEFLHKRSQEDLPKEHQMPLSEALAEHIKRRLLYSGTVTRIDSPWGMPFYALTRPFYAPADDQERTYIMVEDTARFFRMMRDWAEKRPNTMRVLEELDILPEKMQQAKDELDEIIRAWADKYHQDDGVPVVLQMVFGKKED | not failed |
| MSNEDSLPPFTLFGLDDVENYGLVTEADNSLPLDIHNQVFQLVEKGNQSFKESRFEEAISSYSKANSIKPLDPIVLGNRSAAYIRFGQYLKQRSASISEYKPLNGFDMSMLGELALKDADKLMSLQSSLVKSYITKACALMLLERYEVARDTILSGLQIDPFSGPLRSNLQELEKVMPNSMRKTHGMAERSDDFDCTVCLKLLYEPATTPCGHTFCRSCLFQSMDRGNKCPLCRTVIFMTPRTCAVSVTLNNIIEKNFPEEYAERKSEQDTLVHLGNESMPLFVMDVIIPCQKLSLHIFEPRYRLMVRRIMEGNHRMGMVALDSATGSPVDVACEVEITECDPLPDGRFVLELESHRRCRIVKAWDQDGYRVAEVEWVKDIPPQSEQGKADLRELTTSAASFARSWLDRAKEAARQGDRRRLEILLNVESMIPTPQDPERFSFWLATLTDRRPSERLELLRLQDTGEVLDYRLVQIARQISLFHQSLSFDC | failed |
| MSNEFEPYNKEIKKIEFTTWKYQASKDAEHSPSDEEELINELEVVKQEAFQKGYADGFQQAQEEINAIKAELSKWLDLIQKPVQILDEQLTQEIIQTIIWLSQHCVAVELSVNPDKLNDLLNKIKGELPSLTGKKSISMHPDDVRWIKEVFSESNIPGLHELLVADPALNRGDFYLQGEHSELDGRIQTRFTTLFNEYINKENIIP | failed |
| MSNEHKASIDGGQWAQCVRERGWLWDVAQGVEVQSAPTLILAHGAGAPMDSGFMNDIAVRLAGHGVNVLRFEFPYMAQRRLDGGKRPPNPAPRLLECWREVHALVRPYVTGVLALGGKSMGGRMASLLADELQADALVCLGYPFYAAGKPEKPRVAHLADLSVPSLIVQGERDALGNRQAVEAYTLAPGIELYWLTAADHDLKPLKASGFSHEQHLESAALKVAAFLKALS | failed |
| MSNELPAVICLVGPTGAGKTAAALHLAERFAGTVINADSRQVYRDFPIITAQPTAEEQAQCPHRLYGFLETEARMSAGVWGDHATAAIDEALAQGRLPLLVGGTGMYVRALLDGIAAIPAIPRDIHVRWQERCAAEGPQRLHAMLCDIDAEYAARIHPNDRQRVTRALEVHEHTGRTFSEWHRSAMPAPRYRALRIGFAATLDALTPRLAHRIDLMLAAGALDEARRARVHCDDPSAPGWSGIGCAETYAHLVGSLDYEAMRHVWLHNTRAYAKRQLTWFRADTRLTWYAPDDVEGIALGVASFLRGGA | failed |
| MSNHSSSIPELSDNGIRYYQTYNESLSLWPVRCKSFYISTRFGQTHVIASGPEDAPPLVLLHGALFSSTMWYPNIADWSSKYRTYAVDIIGDKNKSIPENVSGTRTDYANWLLDVFDNLGIEKSHMIGLSLGGLHTMNFLLRMPERVKSAAILSPAETFLPFHHDFYKYALGLTASNGVETFLNWMMNDQNVLHPIFVKQFKAGVMWQDGSRNPNPNADGFPYVFTDEELRSARVPILLLLGEHEVIYDPHSALHRASSFVPDIEAEVIKNAGHVLSMEQPTYVNERVMRFFNA | not failed |
| MSNIDFDKYRILLVNSYFQSRNAKITRFWNRATTNAKDIFHGIRTRKEFFSKIIRDFQTEFGEDFIEYLAGGELIGGITNILPIYENKMGVMERSGHIIHKKSGYHLTPDILSEYLINDVFFDNTFLKHNIEELAKADNGVHILDILNSLLKVKDDREIYREATEKLLEMLNCLESDNEQKKRRIRAGIVVYYGFGNLNLVTAAIGEFWTDYGILDDGIDLQALGIFLGDISKLYEARICMERANEIFKNNGDKIGIATSLHNLGIILHLQGNYEEAMNKYNQSLKIDEELGERHRISMSLRFLGRIEYDKGNYDDAVKLYNQSLMIAEKLGDQSGIAKLLGELGIVLLHQGNYDEAIKLYNQSLMIAEKLGDQSGIAGTLYELGKVYLIQDNYGESIEVQKRSLKIKELLGDKYGIAHSLHALGVTHEVKKEYTFALLNYLEASSIYKELNSPYSKDVSKLITDLRDKMGNEQFNKACKEFGYVPPDNI | failed |
| MSNKRIGVVIVSYGHEQDVANLVDTFADQLKTGDRVVVVDNRKPWVLKDAVGERLEKHGAEIINHDNGGFAAGCNVGAAHIVDDVDLLFFLNPDTVIDDPTLFNSLRRVDEQWAAFMPYLLLPDSTINSAGNALHISGLSWVTGLDEKPVEGSSEVTDISIASGACLAVRVDWWKRLGGMEELYFMYHEDTDFSARLLLAGGRIGLLHSAYVTHHYDYAKGDYKWIYIERNRHVLLLSVLPLPLLFVLIPQILGVNLGLWAIAAKEKRVGLKVKSLRLLIRDLPAIFKLRRSTQELAELTPSQYLAKMEWRLDNPNLGNIGSNKIVATGYKTYYKLCMSILKLLA | failed |
| MSNQQNVWVAYATQTQQFHIRVAFQQGMTAWQAIESSGLLTQVELPQPYHLGIFGVRCVADRLLEAGDRVEIYRPLTINPKDIRRKRAEKNPVGRFQKGNRFK | failed |
